Our source for the Normalized Fold Change: SA vs Mock values is patent US20230227838A1, “ENHANCED CELL SURVIVAL AGAINST BIOTIC AND ABIOTIC STRESSES THROUGH SALICYLICK ACID-INDUCED NPR1 CONDENSATES” (priority 2020, published 2023).

This assay addresses sim3-GFP (Arabidopsis thaliana) (UniProt P93002). Put plainly: sim3-GFP IP, LC-MS/MS.

Sequence of sim3-GFP (Arabidopsis thaliana) (P93002 other isoform, or with tags, fused parts or gaps): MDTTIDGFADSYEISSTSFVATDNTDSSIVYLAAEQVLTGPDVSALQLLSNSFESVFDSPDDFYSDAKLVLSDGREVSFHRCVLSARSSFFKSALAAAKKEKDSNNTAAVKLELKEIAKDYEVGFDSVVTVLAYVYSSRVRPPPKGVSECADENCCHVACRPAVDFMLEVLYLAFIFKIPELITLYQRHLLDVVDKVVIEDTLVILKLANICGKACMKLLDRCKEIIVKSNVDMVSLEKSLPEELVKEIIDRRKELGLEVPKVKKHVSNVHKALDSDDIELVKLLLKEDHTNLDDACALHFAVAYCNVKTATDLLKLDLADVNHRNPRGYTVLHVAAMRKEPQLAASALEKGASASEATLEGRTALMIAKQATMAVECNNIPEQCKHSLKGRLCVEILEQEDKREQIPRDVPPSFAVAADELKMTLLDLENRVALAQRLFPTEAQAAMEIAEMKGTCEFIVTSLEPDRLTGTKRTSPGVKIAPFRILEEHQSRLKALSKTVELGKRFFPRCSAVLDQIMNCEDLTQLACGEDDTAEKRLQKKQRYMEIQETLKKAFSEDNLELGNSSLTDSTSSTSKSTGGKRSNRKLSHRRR

B1: TAT3, tyrosine aminotransferase 3 (protein, UniProt Q9SK47 1-445, looked up)
Probable aminotransferase TAT3: MASNGVTNCNANANVWRFKGNGATSDAAAVTLRKLAFGMFKNCTMNSGKTILFPTPGEPSAHSNFRTCPEAEEAVAAAARSGMANSYAPSPGVFKARRAVAEYLNGELPTKLKAEDVYITGGCNQAIEIVIDSLAGNPSANILLPRPGYPHYDARAVYSGLEIRKYDLLPESDWEINLDGLEAAADENTVAMVIINPNNPCGNVYTYDHLNKVAEMARKLGIMIISDEVYDHVVYGDKPFIPMGKFASIAPVITLGSISKGWVNPGWRVGWIAMNDPNGIFVSTGVVQAIEDFLDLTPQPSFILQEALPDILEKTPKEFFEKKIKAMRRNVELSCERLKDIPCLFCPKKPESCSYLWLKLDTSMLNNIKNDFDFCTKLVSEESLILIPGVALGAENWVRISIGTDESVVQEIFDRLKGFYDRHAISKEAIKLSGHAINQIVVSVN
For the molecule B1, the Normalized Fold Change: SA vs Mock came to 18.5 fold.

B2: LURP1, Protein of unknown function (DUF567) (protein, UniProt Q9ZQR8 1-207, looked up)
Protein LURP1: MQQPCVIVGSKYCSPNPVGLAIVRKVMKITDGNFVITSADGKLLFKVKDPLFSLHGKRILLDCSGAKVLTLRGKMMTMHDRWQVFRGGSTEEGALLYTVKRSSMIQLAPKLEVFLANNVEEKICDFKVKGAWLDDSCVVYAGDSDTIIAHMCGKQTMRGFFFGKDHFSVTVDKNVDYAFIASLIVILVEIEKAGFITKMTTQMIIGF
In turn, B2 yielded a Normalized Fold Change: SA vs Mock of 4.63 fold.

B3: ATMEK4, ATMKK4, MKK4, mitogen-activated protein kinase kinase 4 (protein, UniProt O80397 1-366, looked up)
Mitogen-activated protein kinase kinase 4: MRPIQSPPGVSVPVKSRPRRRPDLTLPLPQRDVSLAVPLPLPPTSGGSGGSSGSAPSSGGSASSTNTNSSIEAKNYSDLVRGNRIGSGAGGTVYKVIHRPSSRLYALKVIYGNHEETVRRQICREIEILRDVNHPNVVKCHEMFDQNGEIQVLLEFMDKGSLEGAHVWKEQQLADLSRQILSGLAYLHSRHIVHRDIKPSNLLINSAKNVKIADFGVSRILAQTMDPCNSSVGTIAYMSPERINTDLNQGKYDGYAGDIWSLGVSILEFYLGRFPFPVSRQGDWASLMCAICMSQPPEAPATASPEFRHFISCCLQREPGKRRSAMQLLQHPFILRASPSQNRSPQNLHQLLPPPRPLSSSSSPTT
Molecule B3 came in with a Normalized Fold Change: SA vs Mock of 2.62 fold.

B4: ATCHR12, Homeotic gene regulator (protein, UniProt F4J9M5 1-1102, looked up)
Probable ATP-dependent DNA helicase CHR12: MVAQQLQERCGGTSQEDPVETTKSLICALNYISRDLPLPPHLFTAVSSIYHGASSSSLSDSDVSPPLPTSPPANKAPYGADLMGEFEDALLKQRPDCESGSRLIQLLDNRNKSHIQRRLSELEELPSTRGEDLQAKCLLELYGLKLRELQGKVRTAVSSEFWLRLNCADVSSQVFDWGMMRLPRPFYGVGDPFAMEADDQFRKKRDAERLSRLEEEEKNLIETAKRKFFAEVLNAVREFQLQIQATQKRRRQRNDGVQAWHGRQRQRATRAEKLRLMALKSDDQEAYMKLVKESKNERLTTLLEETNKLLANLGAAVQRQKDAKLPEGIDLLKDSESDLSELDAPRSEPLQDLLPDQDIDITESDNNDDSNDLLEGQRQYNSAIHSIQEKVTEQPSLLEGGELRSYQLEGLQWMVSLFNNNLNGILADEMGLGKTIQTISLIAYLLENKGVPGPYLIVAPKAVLPNWVNEFATWVPSIAAFLYDGRLEERKAIREKIAGEGKFNVLITHYDLIMRDKAFLKKIEWYYMIVDEGHRLKNHESALAKTLLTGYRIKRRLLLTGTPIQNSLQELWSLLNFLLPHIFNSVQNFEEWFNAPFADRGNVSLTDEEELLIIHRLHHVIRPFILRRKKDEVEKFLPGKTQVILKCDMSAWQKVYYKQVTDMGRVGLQTGSGKSKSLQNLTMQLRKCCNHPYLFVGGDYNMWKKPEIVRASGKFELLDRLLPKLRKAGHRILLFSQMTRLIDVLEIYLTLNDYKYLRLDGTTKTDQRGLLLKQFNEPDSPYFMFLLSTRAGGLGLNLQTADTVIIFDSDWNPQMDQQAEDRAHRIGQKKEVRVFVLVSVGSVEEVILERAKQKMGIDAKVIQAGLFNTTSTAQDRREMLEEIMRKGTSSLGTDVPSEREINRLAARSEDEFWMFERMDEERRRKENYRARLMQEQEVPEWAYTTQTQEEKLNNGKFHFGSVTGKRKRKEIVYSDTLSELQWLKAVESGEDLSKLSMRYNRREENASNTKTSTSKKVIESIQTVSDGTSEEDEEEQEEERAKEMSGKQRVDKSEEEEEEGEEENDGKAIFKWNTHKKKRSRYSFTCSSSDSRAQSSNGSRRK
The molecule B4 displayed a Normalized Fold Change: SA vs Mock of 9.34 fold.

B5: MEK1 (protein, UniProt Q94A06 1-354, looked up)
Mitogen-activated protein kinase kinase 1: MNRGSLCPNPICLPPLEQSISKFLTQSGTFKDGDLRVNKDGIQTVSLSEPGAPPPIEPLDNQLSLADLEVIKVIGKGSSGNVQLVKHKLTQQFFALKVIQLNTEESTCRAISQELRINLSSQCPYLVSCYQSFYHNGLVSIILEFMDGGSLADLLKKVGKVPENMLSAICKRVLRGLCYIHHERRIIHRDLKPSNLLINHRGEVKITDFGVSKILTSTSSLANSFVGTYPYMSPERISGSLYSNKSDIWSLGLVLLECATGKFPYTPPEHKKGWSSVYELVDAIVENPPPCAPSNLFSPEFCSFISQCVQKDPRDRKSAKELLEHKFVKMFEDSDTNLSAYFTDAGSLIPPLAN
In the case of B5, the Normalized Fold Change: SA vs Mock was determined as 4.03 fold.

B6: NIMIN1 (protein, UniProt Q9FNZ5 1-142, looked up)
Protein NIM1-INTERACTING 1: MYPKQFSLYNYSLETMSKDENVESKETIRVDKRVREDEEEEEEKKIDTFFKLIKHYQEARKRRREELAENSGVVRRKSNGGERSGIVVPAFQPEDFSQCRTGLKPPLMFVSDHKEENTKVEQEEDQTEERNEDKALDLNLAL
Take B6: the Normalized Fold Change: SA vs Mock came out at 17.7 fold.

B7: AtHSBP, HSBP, heat shock factor binding protein (protein, UniProt Q8GW48 1-86, looked up)
Heat shock factor-binding protein: MDGHDSEDTKQSTADMTAFVQNLLQQMQTRFQTMSDSIITKIDDMGGRINELEQSINDLRAEMGVEGTPPPASKSGDEPKTPASSS
In turn, B7 gave a Normalized Fold Change: SA vs Mock of 6.22 fold.

B8: BSL2, BRI1 suppressor 1 (BSU1)-like 2 (protein, UniProt Q9SJF0 1-1018, looked up)
Serine/threonine-protein phosphatase BSL2: MDEDSSMVADNDQDREFQSLDGGQSPSPMERETPQQMNDQSPPPEGGSVPTPPPSDPNPATSQQQAAAVVGQEQQPALVVGPRCAPTYSVVDAMMDKKEDGPGPRCGHTLTAVPAVGDEGTPGYIGPRLVLFGGATALEGNSGGTGTPTSAGSAGIRLAGATADVHCYDVLSNKWTRLTPFGEPPTPRAAHVATAVGTMVVIQGGIGPAGLSAEDLHVLDLTQQRPRWHRVVVQGPGPGPRYGHVMALVGQRYLMAIGGNDGKRPLADVWALDTAAKPYEWRKLEPEGEGPPPCMYATASARSDGLLLLCGGRDANSVPLASAYGLAKHRDGRWEWAIAPGVSPSSRYQHAAVFVNARLHVSGGALGGGRMVEDSSSVAVLDTAAGVWCDTKSVVTSPRTGRYSADAAGGDASVELTRRCRHAAAAVGDLIFIYGGLRGGVLLDDLLVAEDLAAAETTYAASHAAAAAATNSPPGRLPGRYGFSDERNRELSESAADGAVVLGSPVAPPVNGDMHTDISPENALLPGTRRTNKGVEYLVEASAAEAEAISATLAAAKARQVNGEVELPDRDCGAEATPSGKPTFSLIKPDSMGSMSVTPAGIRLHHRAVVVAAETGGALGGMVRQLSIDQFENEGRRVSYGTPESATAARKLLDRQMSINSVPKKVIAHLLKPRGWKPPVRRQFFLDCNEIADLCDSAERIFASEPTVLQLKAPIKIFGDLHGQFGDLMRLFDEYGSPSTAGDISYIDYLFLGDYVDRGQHSLETISLLLALKVEYQHNVHLIRGNHEAADINALFGFRIECIERMGERDGIWVWHRINRLFNWLPLAASIEKKIICMHGGIGRSINHVEQIENIQRPITMEAGSIVLMDLLWSDPTENDSVEGLRPNARGPGLVTFGPDRVMEFCNNNDLQLIVRAHECVMDGFERFAQGHLITLFSATNYCGTANNAGAILVLGRDLVVVPKLIHPLPPALSSPETSPERHIEDTWMQELNANRPATPTRGRPQNSNDRGGSLAWM
Molecule B8 yielded a Normalized Fold Change: SA vs Mock of 2.07 fold.

B9: DMR1, HSK, homoserine kinase (protein, UniProt Q8L7R2 35-370, looked up)
Homoserine kinase: CRASVQTLVAVEPEPVFVSVKTFAPATVANLGPGFDFLGCAVDGLGDHVTLRVDPSVRAGEVSISEITGTTTKLSTNPLRNCAGIAAIATMKMLGIRSVGLSLDLHKGLPLGSGLGSSAASAAAAAVAVNEIFGRKLGSDQLVLAGLESEAKVSGYHADNIAPAIMGGFVLIRNYEPLDLKPLRFPSDKDLFFVLVSPDFEAPTKKMRAALPTEIPMVHHVWNSSQAAALVAAVLEGDAVMLGKALSSDKIVEPTRAPLIPGMEAVKKAALEAGAFGCTISGAGPTAVAVIDSEEKGQVIGEKMVEAFWKVGHLKSVASVKKLDNVGARLVNSVSR
Consider B9, for which the Normalized Fold Change: SA vs Mock turned out to be 2.16 fold.
